To fix the notation:
B1: LINE1-mini (parent)
chain: GGCAGAGCUCAACACAGCGUGGCAAAGUGGCUGUGGCUAGACUGCC

Results on 167 variants are retold here after the RNAGym collection of RNA variant scans (doi:10.7554/elife.90254).

In this data set the parent is B1. The data set can be described thus: self-cleavage, relative activity (ratio to wild type); higher = more cleavage; in vitro, sequencing; the parent is a self-cleaving ribozyme.
On to C23U C42G, for which the self-cleavage is 0.09.
Regarding C23G U28C, the self-cleavage was determined as 0.66.
With C23G U28G, the self-cleavage is 0.89.
Turning to C23G U28A, the self-cleavage was 0.7.
Take C23U G30A: the self-cleavage was 2.05.
For the variant C23U G30U, the self-cleavage was 1.38.
Take C23U G30C: the self-cleavage was found to be 2.32.
Turning to C23U, the self-cleavage turned out to be 1.03.
The same measure for C23A: 1.01.
Regarding C23G, the self-cleavage stood at 0.84.
Regarding C23A G29C, the self-cleavage was 0.39.
The same measure for C23A G29U: 0.88; for C23A G29A: 0.91; for C23A U43C: 0.08.
As to C23A U43A, the self-cleavage worked out at 0.1.
As for C23A U43G, the self-cleavage turned out to be 0.02.
The same measure for C23U C45U: 1.09; for C23U C45A: 0.47; for C23U C45G: 0.51.
Consider G22C U43G, for which the self-cleavage stood at 0.06.
On to G22C U43C, for which the self-cleavage is 0.06.
Consider G22C U43A, for which the self-cleavage came to 0.12.
Take A24C G40A: the self-cleavage turned out to be 0.07.
On to C23G A39U, for which the self-cleavage worked out at 0.69.
On to C23G A39G, for which the self-cleavage amounted to 0.09.
As for C23G A39C, the self-cleavage turned out to be 0.07.
A24C G33A: the self-cleavage was 0.06.
A24C G33U: the self-cleavage is 0.04.
The same measure for A24C G33C: 0.04; for C23A G35A: 0.23; for C23A G35U: 0.22.
With C23A G35C, the self-cleavage stood at 0.14.
With G22U G33U, the self-cleavage came out at 0.28.
Turning to G22U G33C, the self-cleavage was found to be 0.07.
Next, G22U G33A: 0.63; G22U C45G: 0.42; G22U C45U: 1.25.
G22U C45A: the self-cleavage came to 0.88.
Next, A24C A39U: 0.25.
In the case of A24C A39G, the self-cleavage worked out at 0.07.
As for A24C A39C, the self-cleavage was 1.1.
Next, A24C C31G: 0.03.
Consider A24C C31A, for which the self-cleavage turned out to be 0.06.
Next, A24C C31U: 0.12; C23A G33U: 0.2.
With C23A G33A, the self-cleavage was determined as 0.78.
Next, C23A G33C: 0.05.
Take G22U A39U: the self-cleavage came to 1.
As for G22U A39G, the self-cleavage was found to be 0.08.
For G22U A39C, the self-cleavage was determined as 0.14.
Take C23G G33C: the self-cleavage was found to be 0.03.
The same measure for C23G G33A: 0.32; for C23G G33U: 0.16.
In the case of C23G C45A, the self-cleavage is 0.79.
As for C23G C45U, the self-cleavage was 0.97.
With C23G C45G, the self-cleavage is 0.77.
Take C23G A24G: the self-cleavage amounted to 0.88.
Take C23G A24C: the self-cleavage came out at 0.41.
With C23G A24U, the self-cleavage stood at 0.75.
For the variant C23G A25U, the self-cleavage came out at 0.72.
On to C23G A25C, for which the self-cleavage turned out to be 0.69.
Regarding C23G A25G, the self-cleavage is 1.
The same measure for C23U U32A: 0.2; for C23U U32C: 0.61; for C23U U32G: 0.36.
For A24C A25C, the self-cleavage stood at 0.73.
Regarding A24C A25U, the self-cleavage amounted to 1.01.
As for A24C A25G, the self-cleavage came out at 0.89.
With C23A A41U, the self-cleavage stood at 0.84.
Take C23A A41G: the self-cleavage amounted to 0.43.
Consider C23A A41C, for which the self-cleavage came to 0.05.
Regarding G22U G30U, the self-cleavage worked out at 1.03.
On to G22U G30A, for which the self-cleavage is 1.49.
In the case of G22U G30C, the self-cleavage turned out to be 2.28.
Consider C23G G35U, for which the self-cleavage was 0.11.
On to C23G G35C, for which the self-cleavage was 0.12.
Next, C23G G35A: 0.14.
The same measure for C23A G40U: 0.14; for C23A G40C: 0.15; for C23A G40A: 0.14.
In the case of C23G C37U, the self-cleavage amounted to 0.02.
C23G C37G: the self-cleavage was found to be 0.01.
Turning to C23G C37A, the self-cleavage worked out at 0.04.
The same measure for A24C: 0.71; for A24C G30A: 0.71.
In the case of A24C G30C, the self-cleavage came to 0.49.
Next, A24C G30U: 0.79; G22U C42U: 0.39.
G22U C42A: the self-cleavage is 0.28.
The same measure for G22U C42G: 0.04; for A24C C46A: 0.32; for A24C C46G: 0.27.
The same measure for A24C C46U: 0.64; for A24C C45U: 0.7.
As for A24C C45G, the self-cleavage is 0.16.
In the case of A24C C45A, the self-cleavage amounted to 0.16.
With C23U C37U, the self-cleavage amounted to 0.04.
Next, C23U C37G: 0.02; C23U C37A: 0.04.
On to G22U U32C, for which the self-cleavage worked out at 0.6.
The same measure for G22U U32G: 0.15; for G22U U32A: 0.13; for C23U U38A: 0.47.
As to C23U U38G, the self-cleavage turned out to be 0.04.
With C23U U38C, the self-cleavage was found to be 0.93.
In the case of C23A U34C, the self-cleavage is 0.78.
For C23A U34A, the self-cleavage was determined as 0.24.
In the case of C23A U34G, the self-cleavage was 0.22.
Turning to C23A U32C, the self-cleavage turned out to be 0.47.
Consider C23A U32G, for which the self-cleavage was 0.22.
On to C23A U32A, for which the self-cleavage amounted to 0.11.
Take C23A C31U: the self-cleavage worked out at 0.45.
For C23A C31G, the self-cleavage was 0.08.
Consider C23A C31A, for which the self-cleavage worked out at 0.26.
Take C23G G29A: the self-cleavage is 1.01.
Consider C23G G29C, for which the self-cleavage amounted to 0.26.
In the case of C23G G29U, the self-cleavage is 0.47.
As for G22U C37A, the self-cleavage was determined as 0.06.
The same measure for G22U C37G: 0.03; for G22U C37U: 0.05.
Turning to C23U G35U, the self-cleavage was 0.16.
As to C23U G35C, the self-cleavage was 0.1.
In the case of C23U G35A, the self-cleavage was determined as 0.19.
With C23G U43C, the self-cleavage came to 0.24.
Regarding C23G U43A, the self-cleavage is 0.08.
A24C A41U: the self-cleavage was 0.26.
In the case of A24C A41G, the self-cleavage stood at 0.25.
In the case of A24C A41C, the self-cleavage turned out to be 0.04.
In the case of C23G G40A, the self-cleavage came out at 0.07.
Take C23G G40U: the self-cleavage was 0.14.
Next, C23G G40C: 0.13.
In the case of C23G C31A, the self-cleavage came to 0.09.
The same measure for C23G C31U: 0.2; for C23G C31G: 0.07; for G22U G44U: 0.27.
In the case of G22U G44C, the self-cleavage stood at 0.34.
For G22U G44A, the self-cleavage came to 0.85.
The same measure for G22U G36C: 0.1.
For G22U G36U, the self-cleavage worked out at 0.06.
With G22U G36A, the self-cleavage stood at 0.15.
Turning to C23U G27U, the self-cleavage was found to be 0.87.
C23U G27A: the self-cleavage was 1.07.
Next, C23U G27C: 0.73.
Consider A24C G29A, for which the self-cleavage stood at 1.02.
The same measure for A24C G29U: 0.87; for A24C G29C: 0.54; for A24C G36U: 0.1.
Next, A24C G36C: 0.1; A24C G36A: 0.48.
C23A A24U: the self-cleavage came to 1.
As to C23A A24C, the self-cleavage was 0.85.
For C23A A24G, the self-cleavage was found to be 0.53.
As to C23A G36A, the self-cleavage was 0.17.
With C23A G36U, the self-cleavage came out at 0.06.
Turning to C23A G36C, the self-cleavage came to 0.07.
As to C23G G27A, the self-cleavage was determined as 0.95.
Consider C23G G27U, for which the self-cleavage came out at 1.17.
The same measure for C23G G27C: 0.27; for G22U U34G: 0.26.
G22U U34A: the self-cleavage stood at 0.19.
Turning to G22U U34C, the self-cleavage is 0.44.
On to C23A G44U, for which the self-cleavage is 0.28.
Next, C23A G44A: 0.61; C23A G44C: 0.51; C23U G44U: 0.32.
The same measure for C23U G44A: 0.64; for C23U G44C: 0.48.
